Experimental data taken from patent US7115576B2, “Water-soluble antibiotic comprising an amino sugar, in the form of a polysaccharide conjugate” (Fresenius Kabi Deutschland GmbH, priority 2001, dated 2006).

Key:
[1] = Water solubility; type: physicochemical
[2] = tested on: erythrocytes; assay: Haemolysis comparison test (extinction of supernatant at 576 nm); type: cell-based, human; settings: 37°C, 20 min
Experimental: Of this stock solution, three dilutions were produced in accordance with Table 2 and their haemolytic action also investigated.
Production of the erythrocyte suspension: freshly taken human blood was diluted with approximately 5 times the volume of sterile 0.9% NaCl solution (batch designation: 9055A64 produced by the company Braun Melsungen) and centrifuged for 5 minutes at a relative centrifugal acceleration of 2000. The supernatant solution was then drawn off and the sedimented erythrocytes treated twice more in the same way.
The erythrocytes thus washed were counted in a Neubauer counting chamber and—where necessary—diluted again with sterile 0.9% NaCl solution to a final concentration of approx. 5·10^8 erythrocytes per ml. This suspension is according to DIN standard usable at room temperature for up to 6 hours.
Haemolysis comparison test: 5 ml of the solution to be tested was mixed with 1 ml of the above erythrocyte suspension, transferred to a cleaned centrifuge tube and incubated in a water bath at 37±1° C. for 20 minutes. Centrifuging was then performed for 5 minutes at a relative centrifugal acceleration of 2000.
The extinction of the supernatant liquid was measured. 5 ml of the 0.9% NaCl solution and the 5% glucose solution, which were mixed with 1 ml of the erythrocyte suspension, also incubated at 37±1° C. for 20 minutes and then centrifuged as above, served as negative controls.
For the test for haemolysis, the extinctions of the respective supernatants were measured in a photometer against the negative controls at a wavelength of 576 nm using a cuvette 10 mm in thickness. Owing to the differing stainings of the solutions, the extinction was also measured for the purpose of comparing the solutions without erythrocyte suspension.

Row | Molecule | water solubility [1] | Extinction 576 nm ([2]; amphotericin B 0.1 mg/ml in the test batch (0.12 mg/ml in the solution)) | Extinction 576 nm ([2]; amphotericin B 0.2 mg/ml in the test batch (0.24 mg/ml in the solution)) | Extinction 576 nm ([2]; amphotericin B 0.4 mg/ml in the test batch (0.48 mg/ml in the solution)) | Extinction 576 nm ([2]; amphotericin B 0.83 mg/ml in the test batch (1.00 mg/ml stock solution))
1 | C[C@@H]1[C@H](O)[C@@H](C)/C=C/C=C/C=C/C=C/C=C/C=C/C=C/[C@H](O[C@@H]2O[C@H](C)[C@@H](O)[C@H](N)[C@@H]2O)C[C@@H]2O[C@](O)(C[C@@H](O)C[C@@H](O)[C@H](O)CC[C@@H](O)C[C@@H](O)CC(=O)O[C@H]1C)C[C@H](O)[C@H]2C(=O)O [Amphotericin B, reference compound] | virtually insoluble in water | – | – | – | –
2 | Amphotericin B-HES Conjugate [Ampho HES] | > 0.1 g/5 ml H2O | 0.027 | 0.061 | 0.274*) | 2.452*)**)
